Laboratory results: IntAct's records for PubMed 23503662

B1: F-box/LRR-repeat protein 3 (Homo sapiens), Q9UKT7 (parent)
chain: MKRGGRDSDRNSSEEGTAEKSKKLRTTNEHSQTCDWGNLLQDIILQVFKYLPLLDRAHASQVCRNWNQVFHMPDLWRCFEFELNQPATSYLKATHPELIKQIIKRHSNHLQYVSFKVDSSKESAEAACDILSQLVNCSLKTLGLISTARPSFMDLPKSHFISALTVVFVNSKSLSSLKIDDTPVDDPSLKVLVANNSDTLKLLKMSSCPHVSPAGILCVADQCHGLRELALNYHLLSDELLLALSSEKHVRLEHLRIDVVSENPGQTHFHTIQKSSWDAFIRHSPKVNLVMYFFLYEEEFDPFFRYEIPATHLYFGRSVSKDVLGRVGMTCPRLVELVVCANGLRPLDEELIRIAERCKNLSAIGLGECEVSCSAFVEFVKMCGGRLSQLSIMEEVLIPDQKYSLEQIHWEVSKHLGRVWFPDMMPTW
partner: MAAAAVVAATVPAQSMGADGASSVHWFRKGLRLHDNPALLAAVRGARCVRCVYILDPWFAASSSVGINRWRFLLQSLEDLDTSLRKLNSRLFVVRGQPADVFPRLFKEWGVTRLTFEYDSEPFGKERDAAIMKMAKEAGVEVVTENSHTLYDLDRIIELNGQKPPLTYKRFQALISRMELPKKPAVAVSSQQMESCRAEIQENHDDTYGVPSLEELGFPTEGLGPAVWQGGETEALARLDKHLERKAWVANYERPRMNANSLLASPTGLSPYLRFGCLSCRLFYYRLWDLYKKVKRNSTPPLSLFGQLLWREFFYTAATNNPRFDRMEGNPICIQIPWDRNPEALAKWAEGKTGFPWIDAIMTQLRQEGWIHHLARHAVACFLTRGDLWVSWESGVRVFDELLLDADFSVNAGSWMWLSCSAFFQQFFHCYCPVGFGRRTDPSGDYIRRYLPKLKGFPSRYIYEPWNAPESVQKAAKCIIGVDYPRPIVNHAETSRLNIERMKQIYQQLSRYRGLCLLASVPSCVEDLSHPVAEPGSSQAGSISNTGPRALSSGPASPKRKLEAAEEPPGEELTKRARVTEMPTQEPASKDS
B2: Cryptochrome-2 (Mus musculus), Q9R194 (parent)
chain: B1 partner

Variants of: B1
Details: with cry2_mouse Cry2, Q9R194

Variant	effect of a mutation on the interaction
MKRGGRDSDRNSSEEGTAEKSKKLRTTNEHSQTCDWGNLLQDIILQVFKYLPLLDRAHASQVCRNWNQVFHMPDLWRCFEFELNQPATSYLKATHPELIKQIIKRHSNHLQYVSFKVDSSKESAEAACDILSQLVNCSLKTLGLISTARPSFMDLPKSHFISALTVVFVNSKSLSSLKIDDTPVDDPSLKVLVANNSDTLKLLKMSSCPHVSPAGILCVADQCHGLRELALNYHLLSDELLLALSSEKHVRLEHLRIDVVSENPGQTHFHTIQKSSWDAFIRHSPKVNLVMYFFLYEEEFDPFFRYEIPATHLYFGRSVSKDVLGRVGMTCPRLVELVVCANGLRPLDEELIRIAERCKNLSAIGLGECEVSCSAFVEFVKMCGGRLSQLSIMEEVLIPDQKYSLEQIHWEVSKHLGRVWFPDMMPTA [W428A]	decreasing interaction strength
MKRGGRDSDRNSSEEGTAEKSKKLRTTNEHSQTCDWGNLLQDIILQVFKYLPLLDRAHASQVCRNWNQVFHMPDLWRCFEFELNQPATSYLKATHPELIKQIIKRHSNHLQYVSFKVDSSKESAEAACDILSQLVNCSLKTLGLISTARPSFMDLPKSHFISALTVVFVNSKSLSSLKIDDTPVDDPSLKVLVANNSDTLKLLKMSSCPHVSPAGILCVADQCHGLRELALNYHLLSDELLLALSSEKHVRLEHLRIDVVSENPGQTHFHTIQKSSWDAFIRHSPKVNLVMYFFLYEEEFDPFFRYEIPATHLAFGRSVSKDVLGRVGMTCPRLVELVVCANGLRPLDEELIRIAERCKNLSAIGLGECEVSCSAFVEFVKMCGGRLSQLSIMEEVLIPDQKYSLEQIHWEVSKHLGRVWFPDMMPTW [Y314A]	disrupting interaction strength
MKRGGRDSDRNSSEEGTAEKSKKLRTTNEHSQTCDWGNLLQDIILQVFKYLPLLDRAHASQVCRNWNQVFHMPDLWRCFEFELNQPATSYLKATHPELIKQIIKRHSNHLQYVSFKVDSSKESAEAACDILSQLVNCSLKTLGLISTARPSFMDLPKSHFISALTVVFVNSKSLSSLKIDDTPVDDPSLKVLVANNSDTLKLLKMSSCPHVSPAGILCVADQCHGLRELALNYHLLSDELLLALSSEKHVRLEHLRIDVVSENPGQTHFHTIQKSSWDAFIRHSPKVNLVMAFFLYEEEFDPFFRYEIPATHLYFGRSVSKDVLGRVGMTCPRLVELVVCANGLRPLDEELIRIAERCKNLSAIGLGECEVSCSAFVEFVKMCGGRLSQLSIMEEVLIPDQKYSLEQIHWEVSKHLGRVWFPDMMPTW [Y292A]	decreasing interaction strength
MKRGGRDSDRNSSEEGTAEKSKKLRTTNEHSQTCDWGNLLQDIILQVFKYLPLLDRAHASQVCRNWNQVFHMPDLWRCFEFELNQPATSYLKATHPELIKQIIKRHSNHLQYVSFKVDSSKESAEAACDILSQLVNCSLKTLGLISTARPSFMDLPKSHFISALTVVFVNSKSLSSLKIDDTPVDDPSLKVLVANNSDTLKLLKMSSCPHVSPAGILCVADQCHGLRELALNYHLLSDELLLALSSEKHVRLEHLRIDVVSENPGQTHFHTIQKSSWDAFIRHSPKVNLVMYFFLYEEEFDPFFRYEIPATHLYFGRSVSKDVLGRVGMTCPRLVALVVCANGLRPLDEELIRIAERCKNLSAIGLGECEVSCSAFVEFVKMCGGRLSQLSIMEEVLIPDQKYSLEQIHWEVSKHLGRVWFPDMMPTW [E336A]	disrupting interaction strength
MKRGGRDSDRNSSEEGTAEKSKKLRTTNEHSQTCDWGNLLQDIILQVFKYLPLLDRAHASQVCRNWNQVFHMPDLWRCFEFELNQPATSYLKATHPELIKQIIKRHSNHLQYVSFKVDSSKESAEAACDILSQLVNCSLKTLGLISTARPSFMDLPKSHFISALTVVFVNSKSLSSLKIDDTPVDDPSLKVLVANNSDTLKLLKMSSCPHVSPAGILCVADQCHGLRELALNYHLLSDELLLALSSEKHVRLEHLRIDVVSENPGQTHFHTIQKSSWDAFIRHSPKVNLVMYFFLYEEEFDPFFRYEIPATHLYFGRSVSKDVLGRVGMTCPRLVELVVCANGLRPLDEELIRIAERCKNLSAIGLGECEVSCSAFVEFVKMCGGRLSQLSIMEEVLIPDQKYSLEQIHWEVSKHLGRVWFPDMMATW [P426A]	disrupting interaction strength

Variants of: B2
Details: with per1_human PER1, O15534
Sequence of per1_human PER1, O15534 (O15534 whole entry): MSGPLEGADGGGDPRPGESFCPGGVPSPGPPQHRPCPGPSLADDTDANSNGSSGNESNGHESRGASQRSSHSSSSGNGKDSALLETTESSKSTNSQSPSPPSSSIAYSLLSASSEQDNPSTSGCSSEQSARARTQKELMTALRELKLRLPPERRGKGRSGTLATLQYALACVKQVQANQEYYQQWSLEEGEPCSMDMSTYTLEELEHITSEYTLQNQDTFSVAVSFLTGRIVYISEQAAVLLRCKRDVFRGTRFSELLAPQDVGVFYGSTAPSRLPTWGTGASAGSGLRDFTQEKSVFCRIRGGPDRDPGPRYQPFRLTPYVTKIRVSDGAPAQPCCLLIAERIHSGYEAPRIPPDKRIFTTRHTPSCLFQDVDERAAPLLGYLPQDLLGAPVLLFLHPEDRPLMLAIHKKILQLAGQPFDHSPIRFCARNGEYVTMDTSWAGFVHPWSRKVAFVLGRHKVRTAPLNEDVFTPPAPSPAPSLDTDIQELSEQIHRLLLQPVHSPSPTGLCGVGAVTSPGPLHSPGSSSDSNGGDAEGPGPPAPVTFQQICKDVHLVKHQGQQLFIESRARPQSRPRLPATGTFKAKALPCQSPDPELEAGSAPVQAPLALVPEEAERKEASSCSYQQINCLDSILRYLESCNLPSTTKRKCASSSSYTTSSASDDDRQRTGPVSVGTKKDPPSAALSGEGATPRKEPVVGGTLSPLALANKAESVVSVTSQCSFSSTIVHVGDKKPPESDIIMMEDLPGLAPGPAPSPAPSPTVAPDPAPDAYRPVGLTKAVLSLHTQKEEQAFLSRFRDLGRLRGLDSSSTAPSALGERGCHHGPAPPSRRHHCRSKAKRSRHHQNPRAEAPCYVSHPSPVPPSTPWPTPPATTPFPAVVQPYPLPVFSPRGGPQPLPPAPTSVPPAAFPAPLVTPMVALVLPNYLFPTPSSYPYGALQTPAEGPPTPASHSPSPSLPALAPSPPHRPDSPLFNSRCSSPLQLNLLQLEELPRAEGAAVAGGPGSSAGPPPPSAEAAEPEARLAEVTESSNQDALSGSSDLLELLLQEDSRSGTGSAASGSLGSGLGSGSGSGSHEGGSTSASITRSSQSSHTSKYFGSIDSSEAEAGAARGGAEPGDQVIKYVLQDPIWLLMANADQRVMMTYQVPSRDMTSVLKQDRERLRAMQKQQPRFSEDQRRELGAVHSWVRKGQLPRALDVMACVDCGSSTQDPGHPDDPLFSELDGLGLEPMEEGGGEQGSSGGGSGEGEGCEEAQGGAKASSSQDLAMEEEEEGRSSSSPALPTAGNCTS

Variant	effect of a mutation on the interaction
MAAAAVVAATVPAQSMGADGASSVHWFRKGLRLHDNPALLAAVRGARCVRCVYILDPWFAASSSVGINRWRFLLQSLEDLDTSLRKLNSRLFVVRGQPADVFPRLFKEWGVTRLTFEYDSEPFGKERDAAIMKMAKEAGVEVVTENSHTLYDLDRIIELNGQKPPLTYKRFQALISRMELPKKPAVAVSSQQMESCRAEIQENHDDTYGVPSLEELGFPTEGLGPAVWQGGETEALARLDKHLERKAWVANYERPRMNANSLLASPTGLSPYLRFGCLSCRLFYYRLWDLYKKVKRNSTPPLSLFGQLLWREFFYTAATNNPRFDRMEGNPICIQIPWRRNPEALAKWAEGKTGFPWIDAIMTQLRQEGWIHHLARHAVACFLTRGDLWVSWESGVRVFDELLLDADFSVNAGSWMWLSCSAFFQQFFHCYCPVGFGRRTDPSGDYIRRYLPKLKGFPSRYIYEPWNAPESVQKAAKCIIGVDYPRPIVNHAETSRLNIERMKQIYQQLSRYRGLCLLASVPSCVEDLSHPVAEPGSSQAGSISNTGPRALSSGPASPKRKLEAAEEPPGEELTKRARVTEMPTQEPASKDS [D339R]	disrupting interaction strength
